# Reference: patent publication US20150344570A1 (published 2015)
# T1: FcγRIIb extracellular domain with C-terminal His tag (human, UniProt P31994 43-217)
# T1 construct: extracellular domain; expressed in FreeStyle293 cells; analyte in Biacore; also called FcgRIIb; 2b
# T1 sequence (looked up): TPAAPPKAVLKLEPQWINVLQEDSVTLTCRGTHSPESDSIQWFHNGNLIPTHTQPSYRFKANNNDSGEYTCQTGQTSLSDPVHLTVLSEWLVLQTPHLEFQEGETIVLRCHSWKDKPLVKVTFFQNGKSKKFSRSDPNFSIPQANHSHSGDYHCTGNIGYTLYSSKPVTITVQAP
# B1: GpH7-A5/GpH7-B3 variant Q295_13S/GpL16-k0 (antibody, human IgG1, kappa)
# heavy 1: not shown
# heavy 2: not shown
# light: DIVMTQSPLSLPVTPGEPASISCQASESLVHSNRNTYLHWYLQKPGQSPQLLIYKVSNRFSGVPDRFSGSGSGTDFTLKISRVEAEDVGVYYCSQNTHVPPTFGQGTKVEIERTVAAPSVFIFPPSDEQLKSGTASVVCLLNNFYPREAKVQWKVDNALQSGNSQESVTEQDSKDSTYSLSSTLTLSKADYEKHKVYACEVTHQGLSSPVTKSFNRGEC
# notes: He Ab; IgG1, mutation in one H chain
# B2: GpH7-A5/GpH7-B3 variant Y296_13S/GpL16-k0 (antibody, human IgG1, kappa)
# heavy 1: not shown
# heavy 2: not shown
# light: B1 light
# notes: as for B1
# B3: GpH7-A5/GpH7-B3 variant S298_14T/GpL16-k0 (antibody, human IgG1, kappa)
# heavy 1: not shown
# heavy 2: not shown
# light: B1 light
# notes: as for B1
# B4: GpH7-A5/GpH7-B3 variant S298_09D/GpL16-k0 (antibody, human IgG1, kappa)
# heavy 1: not shown
# heavy 2: not shown
# light: B1 light
# notes: as for B1
# B5: GpH7-A5/GpH7-B3 variant S298_19Q/GpL16-k0 (antibody, human IgG1, kappa)
# heavy 1: not shown
# heavy 2: not shown
# light: B1 light
# notes: as for B1
# B6: GpH7-A5/GpH7-B3 variant Y296_04F/GpL16-k0 (antibody, human IgG1, kappa)
# heavy 1: not shown
# heavy 2: not shown
# light: B1 light
# notes: as for B1
# B7: GpH7-A5/GpH7-B3 variant S324_02A/GpL16-k0 (antibody, human IgG1, kappa)
# heavy 1: not shown
# heavy 2: not shown
# light: B1 light
# notes: as for B1
# B8: GpH7-A5/GpH7-B3 variant Y296_07I/GpL16-k0 (antibody, human IgG1, kappa)
# heavy 1: not shown
# heavy 2: not shown
# light: B1 light
# notes: as for B1
# B9: GpH7-A5/GpH7-B3 variant Y300_03V/GpL16-k0 (antibody, human IgG1, kappa)
# heavy 1: not shown
# heavy 2: not shown
# light: B1 light
# notes: as for B1
# B10: GpH7-A5/GpH7-B3 variant Y296_16H/GpL16-k0 (antibody, human IgG1, kappa)
# heavy 1: not shown
# heavy 2: not shown
# light: B1 light
# notes: as for B1
# B11: GpH7-A5/GpH7-B3 variant Y296_02A/GpL16-k0 (antibody, human IgG1, kappa)
# heavy 1: not shown
# heavy 2: not shown
# light: B1 light
# notes: as for B1
# B12: GpH7-A5/GpH7-B3 variant Y296_18N/GpL16-k0 (antibody, human IgG1, kappa)
# heavy 1: not shown
# heavy 2: not shown
# light: B1 light
# notes: as for B1
# B13: GpH7-A5/GpH7-B3 variant Y296_03V/GpL16-k0 (antibody, human IgG1, kappa)
# heavy 1: not shown
# heavy 2: not shown
# light: B1 light
# notes: as for B1
# B14: GpH7-A5/GpH7-B3 variant S298_18N/GpL16-k0 (antibody, human IgG1, kappa)
# heavy 1: not shown
# heavy 2: not shown
# light: B1 light
# notes: as for B1
# B15: GpH7-A5/GpH7-B3 variant S298_04F/GpL16-k0 (antibody, human IgG1, kappa)
# heavy 1: not shown
# heavy 2: not shown
# light: B1 light
# notes: as for B1
# B16: GpH7-A5/GpH7-B3 variant S298_02A/GpL16-k0 (antibody, human IgG1, kappa)
# heavy 1: not shown
# heavy 2: not shown
# light: B1 light
# notes: as for B1
# B17: GpH7-A5/GpH7-B3 variant Q295_16H/GpL16-k0 (antibody, human IgG1, kappa)
# heavy 1: not shown
# heavy 2: not shown
# light: B1 light
# notes: as for B1
# B18: GpH7-A5/GpH7-B3 variant Y296_14T/GpL16-k0 (antibody, human IgG1, kappa)
# heavy 1: not shown
# heavy 2: not shown
# light: B1 light
# notes: as for B1
# B19: GpH7-A5/GpH7-B3 variant S324_03V/GpL16-k0 (antibody, human IgG1, kappa)
# heavy 1: not shown
# heavy 2: not shown
# light: B1 light
# notes: as for B1
# B20: GpH7-A5/GpH7-B3 variant S298_07I/GpL16-k0 (antibody, human IgG1, kappa)
# heavy 1: not shown
# heavy 2: not shown
# light: B1 light
# notes: as for B1
# B21: GpH7-A5/GpH7-B3 variant Y300_13S/GpL16-k0 (antibody, human IgG1, kappa)
# heavy 1: not shown
# heavy 2: not shown
# light: B1 light
# notes: as for B1
# B22: GpH7-A5/GpH7-B3 variant S298_20W/GpL16-k0 (antibody, human IgG1, kappa)
# heavy 1: not shown
# heavy 2: not shown
# light: B1 light
# notes: as for B1
# B23: GpH7-A5/GpH7-B3 variant Y300_08L/GpL16-k0 (antibody, human IgG1, kappa)
# heavy 1: not shown
# heavy 2: not shown
# light: B1 light
# notes: as for B1
# B24: GpH7-A5/GpH7-B3 variant S298_15Y/GpL16-k0 (antibody, human IgG1, kappa)
# heavy 1: not shown
# heavy 2: not shown
# light: B1 light
# notes: as for B1
# Molecular target: T2, FcγRIa extracellular domain with C-terminal His tag (human, UniProt P12314 16-292)
# T2 construct: extracellular domain; expressed in FreeStyle293 cells; analyte in Biacore; also called FcgRI; 1a
# T2 sequence (P12314 16-292): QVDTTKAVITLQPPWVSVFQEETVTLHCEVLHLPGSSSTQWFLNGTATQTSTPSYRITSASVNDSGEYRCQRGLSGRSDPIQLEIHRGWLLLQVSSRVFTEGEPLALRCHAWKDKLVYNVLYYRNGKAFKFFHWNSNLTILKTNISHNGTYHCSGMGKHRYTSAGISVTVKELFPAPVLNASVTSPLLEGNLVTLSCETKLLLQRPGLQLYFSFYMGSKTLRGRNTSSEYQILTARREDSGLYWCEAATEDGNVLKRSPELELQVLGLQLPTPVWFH
# Assay: SPR (Biacore), captured antibody, FcγR as analyte; relative binding
row,He/Con_1a,Binder
1,102 % of HeCon Ab (GpH7-A5/GpH7-B3/GpL16-k0 = 100),B1
2,105 % of HeCon Ab (GpH7-A5/GpH7-B3/GpL16-k0 = 100),B2
3,107 % of HeCon Ab (GpH7-A5/GpH7-B3/GpL16-k0 = 100),B3
4,106 % of HeCon Ab (GpH7-A5/GpH7-B3/GpL16-k0 = 100),B4
5,109 % of HeCon Ab (GpH7-A5/GpH7-B3/GpL16-k0 = 100),B5
6,104 % of HeCon Ab (GpH7-A5/GpH7-B3/GpL16-k0 = 100),B6
7,103 % of HeCon Ab (GpH7-A5/GpH7-B3/GpL16-k0 = 100),B7
8,104 % of HeCon Ab (GpH7-A5/GpH7-B3/GpL16-k0 = 100),B8
9,117 % of HeCon Ab (GpH7-A5/GpH7-B3/GpL16-k0 = 100),B9
10,106 % of HeCon Ab (GpH7-A5/GpH7-B3/GpL16-k0 = 100),B10
11,103 % of HeCon Ab (GpH7-A5/GpH7-B3/GpL16-k0 = 100),B11
12,106 % of HeCon Ab (GpH7-A5/GpH7-B3/GpL16-k0 = 100),B12
13,104 % of HeCon Ab (GpH7-A5/GpH7-B3/GpL16-k0 = 100),B13
14,108 % of HeCon Ab (GpH7-A5/GpH7-B3/GpL16-k0 = 100),B14
15,109 % of HeCon Ab (GpH7-A5/GpH7-B3/GpL16-k0 = 100),B15
16,107 % of HeCon Ab (GpH7-A5/GpH7-B3/GpL16-k0 = 100),B16
17,102 % of HeCon Ab (GpH7-A5/GpH7-B3/GpL16-k0 = 100),B17
18,105 % of HeCon Ab (GpH7-A5/GpH7-B3/GpL16-k0 = 100),B18
19,104 % of HeCon Ab (GpH7-A5/GpH7-B3/GpL16-k0 = 100),B19
20,107 % of HeCon Ab (GpH7-A5/GpH7-B3/GpL16-k0 = 100),B20
21,111 % of HeCon Ab (GpH7-A5/GpH7-B3/GpL16-k0 = 100),B21
22,104 % of HeCon Ab (GpH7-A5/GpH7-B3/GpL16-k0 = 100),B22
23,113 % of HeCon Ab (GpH7-A5/GpH7-B3/GpL16-k0 = 100),B23
24,107 % of HeCon Ab (GpH7-A5/GpH7-B3/GpL16-k0 = 100),B24

# Molecular target: T1, FcγRIIb extracellular domain with …
# Assay: as above
row,He/Con_2b,Binder
1,56.9 % of HeCon Ab (GpH7-A5/GpH7-B3/GpL16-k0 = 100),B1
2,86.3 % of HeCon Ab (GpH7-A5/GpH7-B3/GpL16-k0 = 100),B2
3,77.9 % of HeCon Ab (GpH7-A5/GpH7-B3/GpL16-k0 = 100),B3
4,48.3 % of HeCon Ab (GpH7-A5/GpH7-B3/GpL16-k0 = 100),B4
5,73.3 % of HeCon Ab (GpH7-A5/GpH7-B3/GpL16-k0 = 100),B5
6,99.2 % of HeCon Ab (GpH7-A5/GpH7-B3/GpL16-k0 = 100),B6
7,78.3 % of HeCon Ab (GpH7-A5/GpH7-B3/GpL16-k0 = 100),B7
8,84.3 % of HeCon Ab (GpH7-A5/GpH7-B3/GpL16-k0 = 100),B8
9,73.9 % of HeCon Ab (GpH7-A5/GpH7-B3/GpL16-k0 = 100),B9
10,92.2 % of HeCon Ab (GpH7-A5/GpH7-B3/GpL16-k0 = 100),B10
11,82 % of HeCon Ab (GpH7-A5/GpH7-B3/GpL16-k0 = 100),B11
12,91.5 % of HeCon Ab (GpH7-A5/GpH7-B3/GpL16-k0 = 100),B12
13,79.3 % of HeCon Ab (GpH7-A5/GpH7-B3/GpL16-k0 = 100),B13
14,48.1 % of HeCon Ab (GpH7-A5/GpH7-B3/GpL16-k0 = 100),B14
15,65.4 % of HeCon Ab (GpH7-A5/GpH7-B3/GpL16-k0 = 100),B15
16,73.4 % of HeCon Ab (GpH7-A5/GpH7-B3/GpL16-k0 = 100),B16
17,62.7 % of HeCon Ab (GpH7-A5/GpH7-B3/GpL16-k0 = 100),B17
18,88.2 % of HeCon Ab (GpH7-A5/GpH7-B3/GpL16-k0 = 100),B18
19,97.8 % of HeCon Ab (GpH7-A5/GpH7-B3/GpL16-k0 = 100),B19
20,70.6 % of HeCon Ab (GpH7-A5/GpH7-B3/GpL16-k0 = 100),B20
21,53.9 % of HeCon Ab (GpH7-A5/GpH7-B3/GpL16-k0 = 100),B21
22,41.1 % of HeCon Ab (GpH7-A5/GpH7-B3/GpL16-k0 = 100),B22
23,73.6 % of HeCon Ab (GpH7-A5/GpH7-B3/GpL16-k0 = 100),B23
24,61.4 % of HeCon Ab (GpH7-A5/GpH7-B3/GpL16-k0 = 100),B24
